Laboratory results published in patent US20250207119A1.

Experiments:
[1] = molecular target: ADAM17 from R & D Systems (UniProt P78536); assay: cell-based or functional assay
[2] = molecular target: Human ADAM10 from R & D Systems (human) (UniProt O14672); assay: cell-based or functional assay
Human ADAM10 from R & D Systems (human), sequence (O14672 214-672 limits assumed): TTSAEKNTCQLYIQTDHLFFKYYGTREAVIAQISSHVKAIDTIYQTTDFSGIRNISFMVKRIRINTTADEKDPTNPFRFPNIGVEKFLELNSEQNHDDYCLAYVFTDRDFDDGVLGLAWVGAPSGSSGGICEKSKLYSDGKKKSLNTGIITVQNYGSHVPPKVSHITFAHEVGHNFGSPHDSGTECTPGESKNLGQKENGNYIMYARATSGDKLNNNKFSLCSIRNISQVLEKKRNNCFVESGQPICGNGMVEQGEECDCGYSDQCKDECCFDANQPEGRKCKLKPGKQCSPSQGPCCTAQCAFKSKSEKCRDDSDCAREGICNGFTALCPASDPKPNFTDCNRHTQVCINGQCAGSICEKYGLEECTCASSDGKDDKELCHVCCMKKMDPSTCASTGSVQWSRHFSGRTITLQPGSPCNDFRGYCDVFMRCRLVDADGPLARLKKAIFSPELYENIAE

ADAM17 from R & D Systems, sequence (P78536 215-671 limits assumed): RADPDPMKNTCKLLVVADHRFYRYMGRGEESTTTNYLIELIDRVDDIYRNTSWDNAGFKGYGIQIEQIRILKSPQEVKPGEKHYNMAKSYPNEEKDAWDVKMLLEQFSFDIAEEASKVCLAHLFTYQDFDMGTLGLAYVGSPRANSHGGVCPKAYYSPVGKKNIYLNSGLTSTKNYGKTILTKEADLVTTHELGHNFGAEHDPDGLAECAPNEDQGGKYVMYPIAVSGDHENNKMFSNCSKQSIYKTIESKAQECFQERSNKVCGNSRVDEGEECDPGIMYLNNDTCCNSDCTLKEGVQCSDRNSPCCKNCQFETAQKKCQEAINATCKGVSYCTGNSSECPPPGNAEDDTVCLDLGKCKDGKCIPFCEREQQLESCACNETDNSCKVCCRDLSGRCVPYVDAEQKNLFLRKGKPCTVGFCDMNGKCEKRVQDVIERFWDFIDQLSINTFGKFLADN

percent inhibition of ADAM17 activity [1]: 33 % at 6.7 µM
IC50 (nM), inhibition of ADAM10 cleavage of the fluorescent substrate PEPDAB064 [2]: 49 nM
B1: Cys151-pegylated SEQ ID NO: 1 (peptide, not shown: small tags and cut ends)
chain: NPLNKYIRHYEGLSYNVDSLHQKHQRAKRAVSHEDQFLRLDFHAHGRHFNLRMKRDTSLFSDEFKVETSNKVLDYDTSHIYTGHIYGEEGSFSHGSVIDGRFEGFIQTRGGTFYVEPAERYIKDRTLPFHSVIYHEDDINYPHKYGPQGGCADHSVFERMRKYQMTGVEEVTQIPQEEHAANGPELLRK
modifications: 10 kDa maleimide PEG on Cys151
